Test [1] addresses human MSLN on OVCAR3 tumor cells (human) (UniProt Q13421). Briefly: FACS, OVCAR3 cells.
For test [2] the target is unchanged. Briefly: FACS, OVCAR3 cells. The source holds these as a separate data set. A general note: In flow cytometry, cells or beads pass a laser one at a time.
Test [3] has the same target. Briefly: FACS, OVCAR3 cells. This is another data set of the same source.
Test [4] has the same target. Briefly: FACS, OVCAR3 cells. The source holds these as a separate data set.
The target of test [5] is human MSLN-R3 on HEK293T-hMSLN-R3 recombinant cells (human) (UniProt Q13421). Briefly: FACS, HEK293T-hMSLN-R3 cells.
For test [6] the target is unchanged. Briefly: FACS, HEK293T-hMSLN-R3 cells. This is another data set of the same source.
The target is the same in test [7]. Briefly: FACS, HEK293T-hMSLN-R3 cells. This is another data set of the same source.
The target is the same in test [8]. Briefly: FACS, HEK293T-hMSLN-R3 cells. The source holds these as a separate data set.
For test [9], the target named is monkey MSLN on HEK293T-monkey MSLN recombinant cells (monkey). Briefly: FACS, HEK293T-monkey MSLN cells.
For test [10] the target is unchanged. Briefly: FACS, HEK293T-monkey MSLN cells. This is another data set of the same source.
The target is the same in test [11]. Briefly: FACS, HEK293T-monkey MSLN cells. This is another data set of the same source.
Test [12] shares this target. Briefly: FACS, HEK293T-monkey MSLN cells. This is another data set of the same source.
The target in test [13] is human MSLN-hFc protein (Acro, Cat. No. MSN-H5253) (human) (UniProt Q13421). Briefly: ELISA on coated antigen, antibody 1 nM.
The target is the same in test [14]. Briefly: ELISA on coated antigen, antibody 1 nM. This is another data set of the same source. For orientation: In an ELISA, binding on a coated surface is turned into a signal by an enzyme label.
Test [15] shares this target. Briefly: ELISA on coated antigen, antibody 10 nM.
For test [16] the target is unchanged. Briefly: ELISA on coated antigen, antibody 0.1 nM.
Test [17] has the same target. Briefly: ELISA on coated antigen, antibody 100 nM.
Test [18] has the same target. Briefly: ELISA on coated antigen, antibody 0.1 nM. The source holds these as a separate data set.
Test [19] has the same target. Briefly: ELISA on coated antigen, antibody 0.01 nM.
For test [20] the target is unchanged. Briefly: ELISA on coated antigen, antibody 0.001 nM.
Test [21] has the same target. Briefly: ELISA on coated antigen, antibody 0.001 nM. This is another data set of the same source.
The target is the same in test [22]. Briefly: ELISA on coated antigen, antibody 0.0001 nM.
In test [23] the target is human MSLN-R3-3 polypeptide (human). Briefly: ELISA, coated MSLN-R3-3.
In test [24] the target is human MSLN-FL-his protein (human) (UniProt Q13421). Briefly: ELISA on coated antigen, antibody 1 nM.
For test [25], the target named is human MSLN-R3-3 polypeptide (human). Briefly: ELISA on coated antigen, antibody 1 nM.
Test [26] shares this target. Briefly: ELISA on coated antigen, antibody 10 nM.
In test [27] the target is human MSLN-FL-his protein (human) (UniProt Q13421). Briefly: ELISA on coated antigen, antibody 0.1 nM.
In test [28] the target is human MSLN-R3-3 polypeptide (human). Briefly: ELISA on coated antigen, antibody 0.1 nM.
Test [29] concerns the target human MSLN-FL-his protein (human) (UniProt Q13421). Briefly: ELISA on coated antigen, antibody 100 nM.
Test [30] deals with human MSLN-R3-3 polypeptide (human). Briefly: ELISA on coated antigen, antibody 100 nM.
For test [31] the target is unchanged. Briefly: ELISA, coated antigen; antibody 0.001 nM.
In test [32] the target is human MSLN-FL-his protein (human) (UniProt Q13421). Briefly: ELISA on coated antigen, antibody 0.01 nM.
The target in test [33] is human MSLN-R3-3 polypeptide (human). Briefly: ELISA on coated antigen, antibody 0.01 nM.
The target is the same in test [34]. Briefly: ELISA, coated antigen; antibody 0.0001 nM.
The target is the same in test [35]. Briefly: ELISA on coated antigen, antibody 0.001 nM.
Test [36] shares this target. Briefly: ELISA on coated antigen, antibody 0.0001 nM.
Test [37] deals with human MSLN-R2-his protein (human) (UniProt Q13421). Briefly: ELISA on coated antigen, antibody 0.0002 nM.
Test [38] concerns the target human MSLN-R3-his protein (human) (UniProt Q13421). Briefly: ELISA on coated antigen, antibody 0.0002 nM.
Test [39] has as its target human MSLN-R3-3 polypeptide (human). Briefly: ELISA on coated antigen, no antibody (column none).
For test [40] the target is unchanged. Briefly: ELISA, coated antigen; no antibody (blank, column 'none').
Test [41] addresses human MSLN-FL-his protein (human) (UniProt Q13421). Briefly: ELISA on coated antigen, no antibody (blank, column 'none').
In test [42] the target is human MSLN-R3-rFc protein (human) (UniProt Q13421). Briefly: ELISA, antibody 1 nM.
Test [43] shares this target. Briefly: ELISA, antibody 4 nM.
For test [44] the target is unchanged. Briefly: ELISA, antibody 100 nM.
The target is the same in test [45]. Briefly: ELISA, antibody 0.032 nM.
The target of test [46] is human MSLN-FL-his protein (human) (UniProt Q13421). Briefly: ELISA, antibody 0.0001 nM.

Where two headings read alike, the source gives them in different places.

Sequence of human MSLN on OVCAR3 tumor cells (human) (Q13421 other isoform, or with tags, fused parts or gaps): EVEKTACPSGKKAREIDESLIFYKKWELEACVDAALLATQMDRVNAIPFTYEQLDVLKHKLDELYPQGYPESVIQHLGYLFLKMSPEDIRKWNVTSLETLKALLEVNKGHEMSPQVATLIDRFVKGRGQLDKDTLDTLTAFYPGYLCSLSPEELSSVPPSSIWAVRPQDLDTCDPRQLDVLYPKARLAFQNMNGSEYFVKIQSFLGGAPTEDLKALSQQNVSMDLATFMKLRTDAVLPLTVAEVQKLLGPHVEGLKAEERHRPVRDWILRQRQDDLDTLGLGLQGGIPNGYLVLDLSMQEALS
Sequence of human MSLN-R3 on HEK293T-hMSLN-R3 recombinant cells (human) (Q13421 495-614): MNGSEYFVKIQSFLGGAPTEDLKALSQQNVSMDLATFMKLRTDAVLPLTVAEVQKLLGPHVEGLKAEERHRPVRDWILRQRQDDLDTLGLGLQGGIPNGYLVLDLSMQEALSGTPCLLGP
Sequence of human MSLN-FL-his protein (human) (Q13421 other isoform, or with tags, fused parts or gaps): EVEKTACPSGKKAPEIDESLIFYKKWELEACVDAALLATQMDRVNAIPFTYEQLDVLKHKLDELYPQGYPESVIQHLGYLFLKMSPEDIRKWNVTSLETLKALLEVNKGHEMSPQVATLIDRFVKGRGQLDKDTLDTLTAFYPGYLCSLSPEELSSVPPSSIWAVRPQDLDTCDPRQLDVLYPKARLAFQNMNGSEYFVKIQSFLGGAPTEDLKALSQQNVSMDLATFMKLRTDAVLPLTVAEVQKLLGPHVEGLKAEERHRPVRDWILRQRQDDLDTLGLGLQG
Sequence of human MSLN-hFc protein (Acro, Cat. No. MSN-H5253) (human) (Q13421 other isoform, or with tags, fused parts or gaps limits assumed): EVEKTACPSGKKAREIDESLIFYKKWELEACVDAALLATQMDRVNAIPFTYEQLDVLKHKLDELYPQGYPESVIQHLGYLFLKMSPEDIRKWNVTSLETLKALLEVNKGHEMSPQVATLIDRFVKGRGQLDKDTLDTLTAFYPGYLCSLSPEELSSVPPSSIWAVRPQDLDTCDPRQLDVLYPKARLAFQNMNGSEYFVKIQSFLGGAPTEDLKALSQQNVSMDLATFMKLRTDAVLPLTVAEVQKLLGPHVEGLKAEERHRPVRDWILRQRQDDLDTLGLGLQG
Sequence of human MSLN-R3-rFc protein (human) (Q13421 495-606): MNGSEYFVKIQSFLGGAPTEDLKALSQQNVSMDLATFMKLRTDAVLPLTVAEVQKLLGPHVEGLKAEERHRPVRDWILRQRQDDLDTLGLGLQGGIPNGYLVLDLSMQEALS
Sequence of human MSLN-R2-his protein (human) (Q13421 other isoform, or with tags, fused parts or gaps): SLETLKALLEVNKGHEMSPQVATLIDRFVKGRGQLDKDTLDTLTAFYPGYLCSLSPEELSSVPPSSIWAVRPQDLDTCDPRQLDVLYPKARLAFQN
Sequence of human MSLN-R3-his protein (human) (Q13421 495-606): as the sequence (Q13421 495-606) above

Tab084 (NC) (scFv): the Maximum MFI was 336 MFI in test [1]; 209 MFI in test [2]; 469 MFI in [3]; 454 MFI in [4]; 439 MFI in test [5]; 92 MFI in test [6]. Besides, the Maximum MFI in test [7] was 304 MFI; in [8], 156 MFI; in [9], 279 MFI; in test [10] it was 104 MFI; in test [11], 231 MFI; in test [12], 172 MFI. For the same substance, the OD450 in [13] is 0.06 OD450; in test [14], 0.07 OD450; in test [15], 0.07 OD450; in test [16], 0.13 OD450; in test [17], 0.07 OD450; in [18], 0.06 OD450. The OD450 stood at 0.07 OD450 in [19], 0.11 OD450 in test [20], 0.07 OD450 in test [21] and 0.06 OD450 in test [22].

Substance anti-hel-hIgG1 (antibody) returned an OD450 at 0.0001 nM in test [23] of 0.07 OD450. Moreover, in test [23], the OD450 at 0.001 nM turned out to be 0.07 OD450. This substance registered an OD450 at 0.01 nM in test [23] of 0.06 OD450. Moreover, the OD450 at 0.1 nM in [23] turned out to be 0.06 OD450. This substance also registered an OD450 at 1 nM in test [23] of 0.06 OD450. In [23], the OD450 at 10 nM was 0.07 OD450. In addition, the OD450 at none (no antibody) in test [23] came out at 0.08 OD450. Besides, the OD450 in test [24] was determined as 0.04 OD; in test [25], 0.05 OD450; in [26] it was 0.05 OD450; in test [27] it was 0.04 OD; in test [28], 0.05 OD450; in test [29], 0.1 OD450. The OD450 in test [30] was found to be 0.06 OD450; in test [31], 0.08 OD450; in test [32], 0.04 OD; in [33], 0.05 OD450; in test [34], 0.07 OD450; in [35], 0.05 OD450. Moreover, the OD450 in test [36] was 0.05 OD450; in test [37], 0.52 OD; in test [38], 0.33 OD; in test [39], 0.05 OD450; in [40] it was 0.07 OD450; in test [41] it was 0.04 OD.

With hIgG1 (human IgG1 control antibody), the OD450 nm in [42] amounted to 0.09; in [43], 0.15; in test [44], 0.21; in test [45], 0.11; in test [46], 0.04.

Values taken from US20250250357A1.
